Columns and labels:
[1] = target: Mouse monoclonal antibody clone 13A3.G6.H1, lot #18881C, raised against CGEN3901 (SEQ ID NO:50); assay: antibody capture competitive ELISA format #5; coat 13A3.G6.H1; tracer biotin-labeled CgenBNP_29; unlabeled peptide as competitor
[2] = target: Mouse monoclonal antibody clone 13A3.G6.H1, lot #18881C, raised against CGEN3901 (SEQ ID NO:50); assay: antigen capture competitive ELISA format #4; coat CgenBNP_49; detector 13A3.G6.H1; free peptide spiked in serum as competitor
[3] = target: Mouse monoclonal antibody clone 13A3.G6.H1, lot #18881C, raised against CGEN3901 (SEQ ID NO:50); assay: antigen capture competitive ELISA format #4, repeatability tests

| Binder | LOD [1] | LOD [2] | LOD [3] |
| --- | --- | --- | --- |
| AEGSSGGLDSSNERVLTCCPKRPSSFLWN [AEWN 29 (also called herein CgenBNP_29, SEQ ID NO: 48)] | 5 ng/mL | 0.3 ng/mL | 1 to 3 ng/mL |
| H-HPLGSPGSASDLETSGLQVRAEGSSGGLDSSNERVLTCCPKRPSSFLWN-OH (cysteine pairing not given here) [HPWN49 (also called herein CgenBNP_49, SEQ ID NO: 49)] | – | 0.6 ng/mL | 1 to 3 ng/mL |

Source: patent publication US20080182299A1
